The target in the experiment is T1, 6xHis-ERp57 (human, UniProt P30101 24-505).
T1 construct: ERp57, human cDNA without the region encoding the N-terminal signal peptide (amino acids 1-23); also called wt ERp57; wild-type 6xHis-ERp57; source: E. coli, purified (Ni-NTA); not shown: 6xHis, N-terminal, kept
T1 sequence (looked up): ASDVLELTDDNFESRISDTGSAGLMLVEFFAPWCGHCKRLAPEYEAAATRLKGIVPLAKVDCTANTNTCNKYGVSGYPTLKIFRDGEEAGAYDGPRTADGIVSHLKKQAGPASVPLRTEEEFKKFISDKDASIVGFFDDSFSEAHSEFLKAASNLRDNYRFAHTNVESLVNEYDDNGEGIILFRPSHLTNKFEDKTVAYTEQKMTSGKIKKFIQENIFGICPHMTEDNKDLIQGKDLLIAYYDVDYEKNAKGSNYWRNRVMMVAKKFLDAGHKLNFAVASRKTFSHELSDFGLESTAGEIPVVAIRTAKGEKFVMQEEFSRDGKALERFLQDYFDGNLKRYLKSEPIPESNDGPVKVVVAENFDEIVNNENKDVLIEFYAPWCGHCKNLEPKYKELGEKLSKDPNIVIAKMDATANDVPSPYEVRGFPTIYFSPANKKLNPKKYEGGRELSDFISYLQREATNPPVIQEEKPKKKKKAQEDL
Put plainly: pull-down; GST-RalA loaded with GDP as bait; purified 6xHis-ERp57 or mutants; Western blot with anti-6xHis antibody; with or without 1 mM DTT. As to conditions: both partners purified. On the technique in general: Immunoblotting shows a protein as a band on a membrane.

These results are taken from PMC3511393, “Identification and Characterisation of the RalA-ERp57 Interaction: Evidence for GDI Activity of ERp57” (PLoS ONE, 2012).

B1: GST-RalA (natural protein, simian, UniProt P63320 1-206, looked up)
chain: MAANKPKGQNSLALHKVIMVGSGGVGKSALTLQFMYDEFVEDYEPTKADSYRKKVVLDGEEVQIDILDTAGQEDYAAIRDNYFRSGEGFLCVFSITEMESFAATADFREQILRVKEDENVPFLLVGNKSDLEDKRQVSVEEAKNRADQWNVNYVETSAKTRANVDKVFFDLMREIRARKMEDSKEKNGKKKRKSLAKRIRERCCIL
notes: RalA, simian cDNA (pGEX-2T-RalA from Yoshito Kaziro); loaded with GDP or GTP immediately before use; Nucleotide state (GDP or GTP) is told by the assay; also called RalA-GDP; RalA-GTP; source: when necessary eluted with reduced GSH and dialysed; not shown: GST, N-terminal, kept
In the case of B1, the binding result is on record as “binds”.
